The subject of one experiment is α2AAR F^7.39N mutation. Also noted: method as in PMID 31801060. The conditions noted are these: cited from earlier work.
The subject of a further experiment is α2AAR S^5.46A. The conditions noted are these: cited from earlier work.
In the next experiment the target is hybrid G protein Gαqs (UniProt P50148).
Another experiment deals with hybrid G protein Gαqi (UniProt P50148).

In the case of `NC[C@H](O)c1ccc(O)c(O)c1` [Norepi, norepinephrine], the “activity of Norepi at F^7.39N mutant, in words” value in the experiment on α2AAR F^7.39N mutation is given as “completely abolishes the activity”.

On to `CNC[C@H](O)c1ccc(O)c(O)c1` [epinephrine], for which the “potency to inhibit forskolin-stimulated cAMP accumulation at S^5.46A, in words” value in the experiment on α2AAR S^5.46A was “markedly reduced the potency”.

For “chimeric receptor α2AAR-β2-TM5 (from UniProt P08913 1-232; P07550 221-232; P08913 245-465)”, in the experiment with hybrid G protein Gαqs, the IP accumulation (IP-One HTRF) in HEK293T cotransfected with receptor and Gαqs; Gs activity, decrease against wild-type α2AAR came to 10 fold. This compound showed an IP accumulation (IP-One HTRF) in HEK293T cotransfected with receptor and Gαqi; Gi coupling activity, decrease against wild-type α2AAR with hybrid G protein Gαqi of 3 fold.

“chimeric receptor β2AR-α2A-TM5 (from UniProt P07550 1-220; P08913 233-244; P07550 233-413)” yielded an IP accumulation (IP-One HTRF) in HEK293T cotransfected with receptor and Gαqs; Gs coupling activity, increase against wild-type β2AR in the experiment with hybrid G protein Gαqs of over 100 fold. Besides, the IP accumulation (IP-One HTRF) in HEK293T cotransfected with receptor and Gαqi; Gi coupling activity, increase against wild-type β2AR in the experiment with hybrid G protein Gαqi is over 100 fold.

These data come from article PMC8896805, “Structural insights into ligand recognition, activation, and signaling of the α2A adrenergic receptor” (Science Advances, 2022).
